One may read the Kd as the free concentration of one partner at which half of the binding sites on the other are occupied at equilibrium, for simple one-to-one binding. Low readings indicate tighter binding, high ones weaker binding.

The record followed here is article PMC10381965 (2022).

The target in the assay is CENP-ΔQU complex (CENP-Q^1–294 and CENP-U^30–266) (S. cerevisiae, UniProt P53298 1-294; P38313 30-266). Kind of assay: ITC.

B1: CENP-A^END-2-R37A peptide (peptide)
peptide: Ac-AGDQQSINDAALSLLQRTRATKNW-NH2
Molecule B1 returned a Kd of 9.67 µM.

B2: CENP-A^END-2 peptide (peptide)
peptide: Ac-AGDQQSINDRALSLLQRTRATKNW-NH2
B2 gave a Kd of 0.66 µM.
